Source: patent publication US7183387 (Genentech, dated 2007)

T1: human FcγRIIB α subunit extracellular domain-6His-GST fusion (human, UniProt P31994 43-217)
T1 construct: not shown: glutathione S-transferase (GST)
T1 sequence: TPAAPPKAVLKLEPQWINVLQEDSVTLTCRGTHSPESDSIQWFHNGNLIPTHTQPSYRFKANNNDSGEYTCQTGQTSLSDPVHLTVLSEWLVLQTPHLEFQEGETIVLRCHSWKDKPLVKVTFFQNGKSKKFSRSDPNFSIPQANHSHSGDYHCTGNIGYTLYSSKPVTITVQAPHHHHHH

T2: human FcγRIIA-R131 α subunit extracellular domain-6His-GST fusion (human, UniProt P12318 34-217)
T2 construct: also called FcγRIIA-Arg131; not shown: glutathione S-transferase (GST)
T2 sequence: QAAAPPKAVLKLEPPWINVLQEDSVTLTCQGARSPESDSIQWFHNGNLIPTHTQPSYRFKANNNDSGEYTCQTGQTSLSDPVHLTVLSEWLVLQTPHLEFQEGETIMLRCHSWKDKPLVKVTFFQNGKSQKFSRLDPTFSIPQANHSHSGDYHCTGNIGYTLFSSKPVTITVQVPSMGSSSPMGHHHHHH

B1: E27 IgG1 variant E269(282)Q (antibody)
heavy: not shown
light: DIQLTQSPSSLSASVGDRVTITCRASKPVDGEGDSYLNWYQQKPGKAPKLLIYAASYLESGVPSRFSGSGSGTDFTLTISSLQPEDFATYYCQQSHEDPYTFGQGTKVEIKRTVAAPSVFIFPPSDEQLKSGTASVVCLLNNFYPREAKVQWKVDNALQSGNSQESVTEQDSKDSTYSLSSTLTLSKADYEKHKVYACEVTHQGLSSPVTKSFNRGEC
notes: also called IG2 169
B2: E27 IgG1 variant E283(300)Q (antibody)
heavy: not shown
light: B1 light
notes: also called IG2 226
B3: E27 IgG1 variant H268(281)Y (antibody)
heavy: not shown
light: B1 light
notes: also called IG2 87
B4: E27 IgG1 variant K274(287)Q (antibody)
heavy: not shown
light: B1 light
B5: E27 IgG1 variant E283(300)D (antibody)
heavy: not shown
light: B1 light
B6: E27 IgG1 variant K320(339)Q (antibody)
heavy: not shown
light: B1 light
notes: also called IG2 204
B7: E27 IgG1 variant K326(345)D (antibody)
heavy: not shown
light: B1 light
notes: also called IG2 211
B8: E27 IgG1 variant E333(352)G (antibody)
heavy: not shown
light: B1 light
notes: also called IG2 178
B9: E27 IgG1 variant H268(281)S (antibody)
heavy: not shown
light: B1 light
notes: also called IG2 85
B10: E27 IgG1 variant E293(310)D (antibody)
heavy: not shown
light: B1 light
B11: E27 IgG1 variant K320(339)M (antibody)
heavy: not shown
light: B1 light
notes: also called IG2 202
B12: E27 IgG1 variant E294(311)Q (antibody)
heavy: not shown
light: B1 light
notes: also called IG2 173
B13: E27 IgG1 variant K290(307)G (antibody)
heavy: not shown
light: B1 light
notes: also called IG2 177
B14: E27 IgG1 variant E272(285)Q (antibody)
heavy: not shown
light: B1 light
notes: also called IG2 223
B15: E27 IgG1 variant E293(310)K (antibody)
heavy: not shown
light: B1 light
B16: E27 IgG1 variant K322(341)E (antibody)
heavy: not shown
light: B1 light
B17: E27 IgG1 variant E318(337)K (antibody)
heavy: not shown
light: B1 light
B18: E27 IgG1 variant E293(310)Q (antibody)
heavy: not shown
light: B1 light
B19: E27 IgG1 variant K320(339)E (antibody)
heavy: not shown
light: B1 light
notes: also called IG2 205
B20: E27 IgG1 variant E333(352)N (antibody)
heavy: not shown
light: B1 light
B21: E27 IgG1 variant K290(307)Q (antibody)
heavy: not shown
light: B1 light
notes: also called IG2 73
B22: E27 IgG1 variant K326(345)E (antibody)
heavy: not shown
light: B1 light
notes: also called IG2 212
B23: E27 IgG1 variant H268(281)N (antibody)
heavy: not shown
light: B1 light
notes: also called IG2 84
B24: E27 IgG1 variant K290(307)S (antibody)
heavy: not shown
light: B1 light
notes: also called IG2 75
B25: E27 IgG1 variant E294(311)D (antibody)
heavy: not shown
light: B1 light
notes: also called IG2 174
B26: E27 IgG1 variant E333(352)R (antibody)
heavy: not shown
light: B1 light
B27: E27 IgG1 variant E283(300)N (antibody)
heavy: not shown
light: B1 light
notes: also called IG2 228
B28: E27 IgG1 variant E333(352)Q (antibody)
heavy: not shown
light: B1 light
B29: E27 IgG1 variant E272(285)N (antibody)
heavy: not shown
light: B1 light
notes: also called IG2 224
B30: E27 IgG1 variant K322(341)N (antibody)
heavy: not shown
light: B1 light
notes: also called IG2 207
B31: E27 IgG1 variant E283(300)S (antibody)
heavy: not shown
light: B1 light
notes: also called IG2 227
B32: E27 IgG1 variant K322(341)R (antibody)
heavy: not shown
light: B1 light
notes: also called IG2 155
B33: E27 IgG1 variant K322(341)Q (antibody)
heavy: not shown
light: B1 light

molecular target: T3, human FcγRIIIA-F158 α subunit extracellular domain-6His-GST fusion (human, UniProt P08637 17-208); experiment: ELISA, IgG:IgE hexamers on receptor-GST
T3 construct: also called FcγRIIIA-Phe158; not shown: glutathione S-transferase (GST)
T3 sequence (P08637 other isoform, or with tags, fused parts or gaps, form in doubt): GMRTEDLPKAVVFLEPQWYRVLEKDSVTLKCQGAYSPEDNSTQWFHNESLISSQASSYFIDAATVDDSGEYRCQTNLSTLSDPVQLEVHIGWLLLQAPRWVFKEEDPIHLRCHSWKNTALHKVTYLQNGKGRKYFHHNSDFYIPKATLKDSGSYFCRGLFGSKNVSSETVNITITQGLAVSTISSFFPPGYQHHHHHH

In order of falling “ratio to native IgG1” value:
1. B21  1.4
2. B7  1.36
3. B11  1.27
4. B22  1.26
5. B24  1.26
6. B13  1.23
7. B2  1.19
8. B6  1.17
9. B19  1.12
10. B8  1.05
11. B28  1.05
12. B18  0.99
13. B5  0.95
14. B27  0.94
15. B32  0.92
16. B31  0.85
17. B12  0.84
18. B26  0.84
19. B14  0.82
20. B9  0.81
21. B16  0.81
22. B33  0.78
23. B3  0.76
24. B15  0.72
25. B17  0.72
26. B4  0.62
27. B20  0.56
28. B23  0.56
29. B29  0.5
30. B10  0.37
31. B1  0.28
32. B25  0.14
33. B30  0.04

molecular target: T1, human FcγRIIB α subunit extracellular …; experiment: ELISA, IgG:IgE hexamers on receptor-GST

In order of falling “ratio to native IgG1” value:
1. B7  2.01
2. B14  1.81
3. B22  1.47
4. B23  1.41
5. B11  1.4
6. B9  1.38
7. B16  1.34
8. B19  1.34
9. B24  1.34
10. B15  1.31
11. B3  1.29
12. B27  1.28
13. B21  1.26
14. B2  1.24
15. B5  1.23
16. B13  1.21
17. B6  1.12
18. B17  1.08
19. B31  1.07
20. B12  0.95
21. B4  0.94
22. B33  0.92
23. B10  0.88
24. B32  0.87
25. B18  0.77
26. B8  0.76
27. B26  0.66
28. B28  0.64
29. B20  0.52
30. B30  0.36
31. B25  0.26
32. B29  0.23
33. B1  0.16

molecular target: T2, human FcγRIIA-R131 α subunit …; experiment: ELISA, IgG:IgE hexamers on receptor-GST

In order of falling “ratio to native IgG1” value:
1. B14  1.93
2. B7  1.68
3. B16  1.38
4. B9  1.35
5. B11  1.34
6. B22  1.34
7. B23  1.33
8. B19  1.29
9. B24  1.27
10. B6  1.23
11. B3  1.19
12. B27  1.18
13. B21  1.17
14. B5  1.14
15. B15  1.13
16. B2  1.12
17. B13  1.07
18. B17  1.03
19. B31  1.03
20. B12  1.01
21. B10  0.9
22. B8  0.87
23. B32  0.87
24. B33  0.87
25. B4  0.86
26. B18  0.85
27. B26  0.75
28. B28  0.7
29. B20  0.59
30. B30  0.57
31. B29  0.43
32. B25  0.37
33. B1  0.08
